The experiment deals with T1, MRM3 (human (endogenous in HEK293)), Q9HC36.
T1 chain: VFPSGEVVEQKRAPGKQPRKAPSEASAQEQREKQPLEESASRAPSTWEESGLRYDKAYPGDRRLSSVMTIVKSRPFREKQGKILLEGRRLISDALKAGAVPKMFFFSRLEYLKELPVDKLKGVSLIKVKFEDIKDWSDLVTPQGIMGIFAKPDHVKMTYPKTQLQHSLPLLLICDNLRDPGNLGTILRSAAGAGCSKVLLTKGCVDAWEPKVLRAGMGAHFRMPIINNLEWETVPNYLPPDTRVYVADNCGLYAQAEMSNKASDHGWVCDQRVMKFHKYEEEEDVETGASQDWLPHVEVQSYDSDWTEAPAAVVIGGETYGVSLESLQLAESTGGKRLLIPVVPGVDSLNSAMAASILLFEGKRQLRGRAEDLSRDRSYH
Nature of the experiment: cryo-EM structure; native 39S pre-mitoribosomal particles isolated by anti-Flag affinity purification (MALSU1 or GTPBP10 bait; state 1 also with particles from a uL17 bait) from HEK293 cells; single-particle analysis, average resolutions between 3.1 Å and 5.7 Å; factors fitted as rigid-body homology models or crystal structures. The settings on record: remark: other sources report otherwise.

Experimental findings from article PMC8316566 are described below.

B1: MRM3, Q9HC36 41-420 (natural protein)
chain: VFPSGEVVEQKRAPGKQPRKAPSEASAQEQREKQPLEESASRAPSTWEESGLRYDKAYPGDRRLSSVMTIVKSRPFREKQGKILLEGRRLISDALKAGAVPKMFFFSRLEYLKELPVDKLKGVSLIKVKFEDIKDWSDLVTPQGIMGIFAKPDHVKMTYPKTQLQHSLPLLLICDNLRDPGNLGTILRSAAGAGCSKVLLTKGCVDAWEPKVLRAGMGAHFRMPIINNLEWETVPNYLPPDTRVYVADNCGLYAQAEMSNKASDHGWVCDQRVMKFHKYEEEEDVETGASQDWLPHVEVQSYDSDWTEAPAAVVIGGETYGVSLESLQLAESTGGKRLLIPVVPGVDSLNSAMAASILLFEGKRQLRGRAEDLSRDRSYH
A word on the stoichiometry N: it is the number of molecules, sites or subunits per partner or assembly. Turning to B1, the stoichiometry N is 2.
